From doi:10.1101/2023.08.30.555639
pKd: −log10 of the molar value. Read-outs that look alike come from different tables or passages of the source.

Columns and labels:
[1] = target: disulfide-linked BTN2A1 ectodomain homodimer (Cys247, leucine zippers) (human) (UniProt Q7KYR7); experiment: SPR
[2] = target: soluble BTN3A1 ectodomain (IgV–IgC), homodimeric (human) (UniProt O00481); experiment: SPR
[3] = target: soluble BTN2A1–BTN3A1–zipper ectodomain complex (wild type) (human) (UniProt Q7KYR7); experiment: SPR
[4] = target: BTN3A1 Ser42-Ala on transfected NIH-3T3 cells (human) (UniProt O00481); experiment: flow cytometry on cells
[5] = target: BTN3A1 Leu96-Ala on transfected NIH-3T3 cells (human) (UniProt O00481); experiment: flow cytometry on cells
[6] = target: BTN3A1 Phe26-Ala on transfected NIH-3T3 cells (human) (UniProt O00481); experiment: flow cytometry on cells
[7] = target: BTN3A1 Lys37-Ala on transfected NIH-3T3 cells (human) (UniProt O00481); experiment: flow cytometry on cells
[8] = target: soluble BTN2A1^WT–BTN3A1^Glu106-Ala zipper ectodomain complex (human) (UniProt Q7KYR7); experiment: SPR
[9] = target: soluble BTN2A1–BTN3A1–zipper ectodomain complex (wild type) (human) (UniProt Q7KYR7); experiment: SPR; remark: listed apart in the source

Row | Substance | pKd [1] | pKd [2] | pKd [3] | further results
1 | monomeric BTN3A1 IgV domain (domain or fragment) | 2.96 | – | – | –
2 | soluble BTN2A1 ectodomain lacking Cys247 (monomeric) (from UniProt Q7KYR7 29-248) (domain or fragment) | – | 2.74 | – | –
3 | soluble G115 Vγ9Vδ2^+ TCR His85γ-Ala | – | – | 3.13 | –
4 | soluble G115 Vγ9Vδ2^+ TCR Lys53δ-Ala | – | < 2.92 | 4.34 | –
5 | soluble Vγ9Vδ2^+ γδTCR clone G115, wild type | 4.00 | < 2.40 | 4.10 | reduction of G115 tetramer staining against wild-type BTN3A1 [4]: > 90%; reduction of G115 tetramer staining against wild-type BTN3A1 [5]: > 90%; reduction of G115 tetramer staining against wild-type BTN3A1 [6]: > 90%; reduction of G115 tetramer staining against wild-type BTN3A1 [7]: > 90%; pKd [8]: 4.43; pKd [9]: 4.07
